Assay results as given in PMC7419741 (QRB Discovery, 2020).

Biological target: T1, IL8
T1 construct: interleukin 8 (CXCL8), ligand of CXCR2
Assay: MST; 5 nM NT647-labelled receptor-Fc against a gradient of ligand; 1x PBS, 10 mM DTT, arginine at different concentrations; Monolith NT.115 pico, 25°C; data from the early T-Jump period; Kd model (law of mass action)
Conditions: both partners purified

B1: CXCR2^QTY–Fc (Fc fusion)
chain: MEDFNMESDSFEDFWKGEDLSNYSYSSTLPPFLLDAAPCEPESLEINKYYTTTTYAQTYQQSQQGNSQTMQTTQYSRVGRSVTDTYQQNQAQADQQYAQTQPTWAASKVNGWIFGTFLCKTTSQQKETNYYSGTQQQACTSTDRYLAIVHATRTLTQKRYLVKYTCQSTWGQSQQQAQPTQQYRRTVYSSNVSPACYEDMGNNTANWRMQQRTQPQSYGYTTPQQTMQYCYGFTLRTLFKAHMGQKHRAMRTTYATTQTYQQCWQPYNQTQQADTLMRTQVIQETCERRNHIDRAQDATETQGTQHSCQNPQTYAFIGQKFRHGLLKILAIHGLISKDSLPKDSRPSFVGSSSGHTSTTL
modifications: NT647 fluorescent dye (Monolith NT protein labelling kit RED-NHS)
  Kd: 60.3 ± 21 nM
